Measurements: publication PMC12328743
Bridges are numbered along the chain shown (N, C = ends). Where no end group is shown, it is not given here.

Target: staphylococcal TMcin-G1905 (mature transmembrane helix-containing bacteriocin peptide, processed product of TmcA) (Staphylococcus aureus (isolate G1905))

B1: staphylococcal TMcin-G1905 (mature transmembrane helix-containing bacteriocin peptide, processed product of TmcA) (peptide)
chain: AWFVVLLAAILVFATAIFAGLTIWCVVNQHGKFTGNWNWHIKGVSLDVECKR
modifications: disulfide 25-50
For B1, the discrete stepwise conductance events in voltage-clamped planar lipid bilayers (DPhPC, 150 mM KCl) after adding purified TMcin-G1905; median conductance was 10.8 nS.
